Test results taken from article doi:10.1101/2021.10.24.465637.

Assays:
[1] = molecular target: SGHRT-FLAG (human SGHRT, C-terminal FLAG) (human); test: SDS-PAGE and Western blot
[2] = molecular target: SGHRT-HA (human SGHRT, C-terminal HA) (human); test: SDS-PAGE and Western blot

Substance: SGHRT-FLAG (human SGHRT, C-terminal FLAG) (peptide)
- stoichiometry N [1]: 2

Substance: SGHRT-HA (human SGHRT, C-terminal HA) (peptide)
- stoichiometry N [2]: 2
